Source: the supplement of paper PMC7877785
± gives the uncertainty stated by the source.

Test: self-splicing fitness, log relative to wild type (ln ratio); higher = more splicing; Tetrahymena group I intron in knt gene, E. coli kanamycin selection, DiMSum; sequences stand for … in CUCUCU…GGAGGGAAAAGUUAUCAGGCAUGCACCUGGUAGCUAGUCUUUAAACCAAUAGAUUGCAUCGGUUUAAAAGGCAAGACCGUCAAAUUGCGGGAAAGGGGUCAACAGCCGUUCAGUACCAAGUCUCAGGGGAAACUUUGAGAUGGCCUUGCAAAGGGUAUGGUAAUAAGCUGACGGACAUGGUCCUAACCACGCAGCCAAGUCCUAAGUCAACAGAUCUUCUGUUGAUAUGGAUGCAGUUCACAGACUAAAUGUCGGUCGGGGAAGAUGUAUUCUUCUCAUAAGAUAUAGUCGGACCUCUCCUUAAUGGGAGCUAGCGGAUGAAGUGAUGCAACACUGGAGCCGCUGGGAACUAAUUUGUAUGCGAAAGUAUAUUGAUUAGUUUUGGAGUACUCGUGGUCG
How it was run: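 Pooled colonies went to amplicon sequencing on an Illumina HiSeq 2500 after six replicate transformations. The plates were LB agar with 100 μg/mL carbenicillin, 50 μM IPTG and 0.2% rhamnose, with or without 25 μg/mL kanamycin, incubated overnight at 37°C or 30°C. The E. coli BL21(DE3) library had all eight P1ex-region intron nucleotides randomised, the intron placed in the knt kanamycin-resistance gene on pET-22b(+). DiMSum fitness is the error-weighted combination of replicate fold changes, kanamycin against none, normalised to wild type.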

| Sequence | self-splicing fitness (ln) (30 °C) | self-splicing fitness (ln) (37 °C) |
| --- | --- | --- |
| CUGCAGCAAUAUUACGGGCA | -3.01 ± 0.17 | -1.06 ± 0.14 |
| ACGUAGCAAUAUUACGCUGA | -1.81 ± 0.089 | -0.483 ± 0.085 |
| AAAGAGCAAUAUUACGACGG | -3.27 ± 0.29 | -2.83 ± 0.43 |
| AGGCAGCAAUAUUACGAUAG | -3.08 ± 0.34 | -2.15 ± 0.36 |
| CGUCAGCAAUAUUACGUUCC | -2.43 ± 0.16 | -1.18 ± 0.23 |
| CUCCAGCAAUAUUACGUCUU | -4.45 ± 0.28 | -2.88 ± 0.16 |
| CCACAGCAAUAUUACGCAGC | -3.88 ± 0.22 | -2.83 ± 0.25 |
| GUGUAGCAAUAUUACGCUGU | -2.96 ± 0.2 | -3.45 ± 0.39 |
| CCUUAGCAAUAUUACGUCAA | -2.87 ± 0.33 | – |
| CGUCAGCAAUAUUACGUCGU | -3 ± 0.09 | -1.99 ± 0.11 |
| GGGGAGCAAUAUUACGCAGG | – | -2.08 ± 0.46 |
| UUAUAGCAAUAUUACGCAUA | -2.43 ± 0.29 | -0.953 ± 0.18 |
| GCAGAGCAAUAUUACGUACA | -2.86 ± 0.28 | -0.806 ± 0.24 |
| AUCCAGCAAUAUUACGAGCA | -1.14 ± 0.14 | -1.1 ± 0.11 |
| CUCGAGCAAUAUUACGUGCU | -2.36 ± 0.24 | – |
| UGCUAGCAAUAUUACGUGUA | -1.74 ± 0.1 | -1.26 ± 0.1 |
| UAGUAGCAAUAUUACGAUCA | -0.544 ± 0.088 | 0.306 ± 0.12 |
| UAUCAGCAAUAUUACGAGGA | -0.877 ± 0.13 | -1.39 ± 0.14 |
| GCGCAGCAAUAUUACGUGCU | -4.09 ± 0.2 | -2.87 ± 0.23 |
| AAUCAGCAAUAUUACGACUG | -0.833 ± 0.097 | 0.27 ± 0.11 |
| GUGGAGCAAUAUUACGAACA | -2.19 ± 0.46 | -0.866 ± 0.45 |
| AGUCAGCAAUAUUACGGCCU | 0.247 ± 0.1 | 0.507 ± 0.13 |
| CUGCAGCAAUAUUACGAUGC | -3.13 ± 0.24 | -1.92 ± 0.43 |
| AGUGAGCAAUAUUACGAGUA | -3.6 ± 0.44 | -2.18 ± 0.32 |

| Sequence | self-splicing fitness (ln) (30 °C) | self-splicing fitness (ln) (37 °C) |
| --- | --- | --- |
| GAAAAGCAAUAUUACGCGGA | -2.25 ± 0.14 | -0.603 ± 0.13 |
| GGUAAGCAAUAUUACGUGAA | -1.52 ± 0.098 | -1.18 ± 0.14 |
| CUGUAGCAAUAUUACGUAUC | -4.3 ± 0.47 | -1.57 ± 0.38 |
| GGCCAGCAAUAUUACGAUCU | -0.383 ± 0.06 | -0.133 ± 0.078 |
| GGCUAGCAAUAUUACGACAA | -0.713 ± 0.29 | -0.198 ± 0.33 |
| GUGGAGCAAUAUUACGAAUC | -3.4 ± 0.24 | -1.43 ± 0.26 |
| UCACAGCAAUAUUACGUCCU | -3.15 ± 0.19 | -2.27 ± 0.15 |
| GCGCAGCAAUAUUACGAAGU | -0.905 ± 0.13 | -0.493 ± 0.16 |
| UGUCAGCAAUAUUACGAGCG | 0.308 ± 0.083 | 0.59 ± 0.11 |
| GCACAGCAAUAUUACGGUUU | -0.633 ± 0.047 | 0.145 ± 0.057 |
| CCACAGCAAUAUUACGCCAA | -2.96 ± 0.2 | -2.1 ± 0.23 |
| CAUAAGCAAUAUUACGUCUC | -3.68 ± 0.3 | -2.52 ± 0.29 |
| UUUCAGCAAUAUUACGGGGC | -2.91 ± 0.18 | -3.35 ± 0.31 |
| CCGCAGCAAUAUUACGUGAG | -0.587 ± 0.038 | -0.367 ± 0.051 |
| CAUAAGCAAUAUUACGAAGG | -1.56 ± 0.11 | -1.55 ± 0.15 |
| UAACAGCAAUAUUACGCCGU | -3.54 ± 0.24 | -1.94 ± 0.19 |
| ACAUAGCAAUAUUACGGCGU | -0.355 ± 0.07 | 0.246 ± 0.081 |
| AGCCAGCAAUAUUACGGGCG | -2.66 ± 0.1 | -0.918 ± 0.1 |
| UUUAAGCAAUAUUACGAAUC | -2.96 ± 0.28 | -1.04 ± 0.25 |
| UUAAAGCAAUAUUACGUCAA | -0.222 ± 0.082 | -0.107 ± 0.095 |
| CAGGAGCAAUAUUACGAGCU | -3.44 ± 0.47 | -2.52 ± 0.41 |
| AGACAGCAAUAUUACGGGGG | -3.63 ± 0.26 | -2.79 ± 0.23 |
| UUGAAGCAAUAUUACGCUCA | -0.439 ± 0.12 | 1.17 ± 0.19 |
| GCCUAGCAAUAUUACGGAUC | -0.351 ± 0.12 | -0.096 ± 0.16 |
